Data on 1 molecule can be found in paper PMC7768908 (2020).

The target of this test is MT1-MMP cytoplasmic tail peptide (MMP-CTP) (Homo sapiens, Fe(II)-bound). Description: ITC. (In general: ITC needs no label: the signal is the heat of the interaction.)

B1: acireductone dioxygenase (Fe-HsARD) (protein)
chain: MVQAWYMDDAPGDPRQPHRPDPGRPVGLEQLRRLGVLYWKLDADKYENDPELEKIRRERNYSWMDIITICKDKLPNYEEKIKMFYEEHLHLDDEIRYILDGSGYFDVRDKEDQWIRIFMEKGDMVTLPAGIYHRFTVDEKNYTKAMRLFVGEPVWTAYNRPADHFEARGQYVKFLAQTA
A word on the Kd: it is the free concentration of one partner at which half of the binding sites on the other are occupied at equilibrium, for simple one-to-one binding. A low value points to a tighter complex. B1: the Kd is about 10 µM.
